Several values for one entry are separate records, joined by “and”; a condition that tells them apart may be missing. Identical values can stand only once. Like-named read-outs stand apart in the source and are kept apart here.
B1: HscA substrate binding domain (SBD-HscA, residues 389-616) (domain or fragment, E. coli, UniProt P0A6Z1 389-616, looked up)
chain: LDVIPLSLGLETMGGLVEKVIPRNTTIPVARAQDFTTFKDGQTAMSIHVMQGERELVQDCRSLARFALRGIPALPAGGAHIRVTFQVDADGLLSVTAMEKSTGVEASIQVKPSYGLTDSEIASMIKDSMSYAEQDVKARMLAEQKVEAARVLESLHGALAADAALLSAAERQVIDDAAAHLSEVAQGDDVDAIEQAIKNVDKQTQDFAARRMDQSVRRALKGHSVDEV
B2: BioB containing one [2Fe-2S]2+ cluster per monomer (enzyme, E. coli, UniProt P12996 1-346, looked up)
chain: MAHRPRWTLSQVTELFEKPLLDLLFEAQQVHRQHFDPRQVQVSTLLSIKTGACPEDCKYCPQSSRYKTGLEAERLMEVEQVLESARKAKAAGSTRFCMGAAWKNPHERDMPYLEQMVQGVKAMGLEACMTLGTLSESQAQRLANAGLDYYNHNLDTSPEFYGNIITTRTYQERLDTLEKVRDAGIKVCSGGIVGLGETVKDRAGLLLQLANLPTPPESVPINMLVKVKGTPLADNDDVDAFDFIRTIAVARIMMPTSYVRLSAGREQMNEQTQAMCFMAGANSIFYGCKLLTTPNPEEDKDLQLFRKLGLNPQQTAVLAGDNEQQQRLEQALMTPDTDEYYNAAAL

Experiments:
[1] = target: B2; assay: molecular weight filtration assay
[2] = target: T1, HscA, Hsp70-class molecular chaperone of the isc operon (E. coli, UniProt P0A6Z1 1-616); assay: molecular weight filtration assay
T1 sequence (looked up): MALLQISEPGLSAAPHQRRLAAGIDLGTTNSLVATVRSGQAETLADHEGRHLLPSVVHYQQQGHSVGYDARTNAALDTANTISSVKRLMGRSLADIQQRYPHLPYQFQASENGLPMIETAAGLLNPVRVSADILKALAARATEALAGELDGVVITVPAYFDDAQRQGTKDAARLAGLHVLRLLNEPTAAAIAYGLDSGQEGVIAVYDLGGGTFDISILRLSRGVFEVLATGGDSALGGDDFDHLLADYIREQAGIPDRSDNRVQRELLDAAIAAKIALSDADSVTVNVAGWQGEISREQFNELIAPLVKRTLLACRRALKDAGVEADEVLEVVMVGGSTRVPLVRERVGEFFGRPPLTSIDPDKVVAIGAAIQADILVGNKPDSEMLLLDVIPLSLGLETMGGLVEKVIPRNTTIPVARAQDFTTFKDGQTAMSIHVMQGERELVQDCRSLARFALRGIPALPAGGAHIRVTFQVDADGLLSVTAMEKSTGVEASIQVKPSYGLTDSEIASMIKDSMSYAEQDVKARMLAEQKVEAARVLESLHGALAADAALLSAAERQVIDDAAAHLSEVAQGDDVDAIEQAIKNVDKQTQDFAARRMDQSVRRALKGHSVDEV

[3] = target: T1, HscA, Hsp70-class molecular chaperone …; assay: molecular weight filtration assay; remark: listed apart in the source
[4] = target: the molecule itself; assay: AUC
[5] = target: T1, HscA, Hsp70-class molecular chaperone …; assay: AUC
[6] = target: T1, HscA, Hsp70-class molecular chaperone …; assay: molecular weight filtration assay; remark: listed apart in the source
[7] = target: B1; assay: molecular weight filtration assay
[8] = target: the molecule itself; assay: AUC; remark: listed apart in the source
[9] = target: T1, HscA, Hsp70-class molecular chaperone …; assay: molecular weight filtration assay; remark: listed apart in the source

Question: B1 was tested. Which Kd [1] did it give?
Answer: 0.55 ± 0.3 µM

Question: Which Kd [2] does the source give for B2 here?
Answer: ~5 µM

Question: And the Kd [3]?
Answer: 5.5 µM and 5.6 µM

Question: What about the “stoichiometry N” value [4] of the same binder?
Answer: 2

Question: And the Kd [5]?
Answer: 12 µM

Question: And the “stoichiometry N” value [5]?
Answer: 1 HscA per BioB dimer and 2 HscA per BioB dimer

Question: What about the “stoichiometry N” value [6] of the same binder?
Answer: ~1 HscA per BioB dimer

Question: What about the “stoichiometry N” value [7] of the same binder?
Answer: 1

B3: BioB containing both [2Fe-2S]2+ and [4Fe-4S]2+ clusters (enzyme, E. coli, UniProt P12996 1-346, looked up)
chain: MAHRPRWTLSQVTELFEKPLLDLLFEAQQVHRQHFDPRQVQVSTLLSIKTGACPEDCKYCPQSSRYKTGLEAERLMEVEQVLESARKAKAAGSTRFCMGAAWKNPHERDMPYLEQMVQGVKAMGLEACMTLGTLSESQAQRLANAGLDYYNHNLDTSPEFYGNIITTRTYQERLDTLEKVRDAGIKVCSGGIVGLGETVKDRAGLLLQLANLPTPPESVPINMLVKVKGTPLADNDDVDAFDFIRTIAVARIMMPTSYVRLSAGREQMNEQTQAMCFMAGANSIFYGCKLLTTPNPEEDKDLQLFRKLGLNPQQTAVLAGDNEQQQRLEQALMTPDTDEYYNAAAL
Question: B3 was tested. Which “stoichiometry N” value [6] did it give?
Answer: ~1 HscA per BioB dimer

B4: BioB apoprotein (His6-biotin synthase lacking both iron-sulfur clusters) (enzyme, E. coli, UniProt P12996 1-346, looked up)
chain: MAHRPRWTLSQVTELFEKPLLDLLFEAQQVHRQHFDPRQVQVSTLLSIKTGACPEDCKYCPQSSRYKTGLEAERLMEVEQVLESARKAKAAGSTRFCMGAAWKNPHERDMPYLEQMVQGVKAMGLEACMTLGTLSESQAQRLANAGLDYYNHNLDTSPEFYGNIITTRTYQERLDTLEKVRDAGIKVCSGGIVGLGETVKDRAGLLLQLANLPTPPESVPINMLVKVKGTPLADNDDVDAFDFIRTIAVARIMMPTSYVRLSAGREQMNEQTQAMCFMAGANSIFYGCKLLTTPNPEEDKDLQLFRKLGLNPQQTAVLAGDNEQQQRLEQALMTPDTDEYYNAAAL
Question: For B4, which “stoichiometry N” value [8] is on record?
Answer: 2

Question: What about the “stoichiometry N” value [6] of the same binder?
Answer: 0.96 apoBioB dimer per HscA

B5: dethiobiotin synthase (BioD) (enzyme)
chain: SKRYFVTGTDTEVGKTVASCALLQAAKAAGYRTAGYKPVASGSEKTPEGLRNSDALALQRNSSLQLDYATVNPYTFAEPTSPHIISAQEGRPIESLVMSAGLRALEQQADWVLVEGAGGWFTPLSDTFTFADWVTQEQLPVILVVGVKLGCINHAMLTAQVIQHAGLTLAGWVANDVTPPGKRHAEYMTTLTRMIPAPLLGEIPWLAENPENAATGKYINLALL
Question: How did the Kd [9] turn out when B5 was run?
Answer: ≥ 1100 µM

Reference: publication PMC2809015 (Biochemistry, 2009)
